According to paper PMC8934645, “Discovery of potent and versatile CRISPR–Cas9 inhibitors engineered for chemically controllable genome editing”:

What was measured:
St3Cas9;AcrIIA24 = St3Cas9;AcrIIA24 (Streptococcus …, UniProt Q03JI6;A0A3G8FCC3 1-1388;1-104, |); assay: EMSA; sgRNA; AcrIIA24 added before DNA; supershift; 20 mM Tris-HCl pH 7.6, 150 mM KCl, 5 mM EDTA (Results text: 10 mM EDTA), 5 mM MgCl2, 1 mM DTT, 5% glycerol, 50 ug/ml heparin, 0.01% Tween 20, 100 ug/ml BSA; RNP and DNA steps 37 C 10 min, Acr RT 20 min; RNP 256 nM, DNA 20 nM; RNA EMSA 256 nM Cas9 and sgRNA, 37 C; settings: protein: recombinant;recombinant; tags: His (pET28a, Ni-NTA);tag removed by TEV; copies: 1;1; label: Cy5 on target strand; blunt
St1Cas9;AcrIIA30 = St1Cas9;AcrIIA30 (Streptococcus …, UniProt Q03LF7; 1-1121;, |); assay: EMSA; sgRNA; AcrIIA30 added after DNA; supershift; 20 mM Tris-HCl pH 7.6, 150 mM KCl, 5 mM EDTA (Results text: 10 mM EDTA), 5 mM MgCl2, 1 mM DTT, 5% glycerol, 50 ug/ml heparin, 0.01% Tween 20, 100 ug/ml BSA; RNP and DNA steps 37 C 10 min, Acr RT 20 min; RNP 256 nM, DNA 20 nM; RNA EMSA 256 nM Cas9 and sgRNA, 37 C; settings: protein: recombinant;recombinant; tags: His (pET28a, Ni-NTA);tag removed by TEV; copies: 1;1; label: Cy5 on target strand; blunt
SpyCas9;AcrIIA32.1 = SpyCas9;AcrIIA32.1 (Streptococcus pyogenes;Streptococcus …, UniProt Q99ZW2; 1-1368;, |); assay: EMSA; sgRNA; AcrIIA32.1 added after DNA; supershift; 20 mM Tris-HCl pH 7.6, 150 mM KCl, 5 mM EDTA (Results text: 10 mM EDTA), 5 mM MgCl2, 1 mM DTT, 5% glycerol, 50 ug/ml heparin, 0.01% Tween 20, 100 ug/ml BSA; RNP and DNA steps 37 C 10 min, Acr RT 20 min; RNP 256 nM, DNA 20 nM; RNA EMSA 256 nM Cas9 and sgRNA, 37 C; settings: protein: recombinant;recombinant; tags: ;tag removed by TEV; label: Cy5 on target strand; blunt

B1: Substrate DNA, St3Cas9 sgRNA target (dsDNA)
DNA 1: CTCACGGGTGTCATTCTCCACTCAGTGGCAGACCTTGCTCCCGCGAGGAGTAGTCG
DNA 2: CGACTACTCCTCGCGGGAGCAAGGTCTGCCACTGAGTGGAGAATGACACCCGTGAG
binding result (St3Cas9;AcrIIA24): binds

B2: Substrate DNA, St1Cas9 sgRNA target (dsDNA)
DNA 1: B1 DNA 1
DNA 2: B1 DNA 2
binding result (St1Cas9;AcrIIA30): binds

B3: Substrate DNA, SpyCas9 sgRNA target (dsDNA)
DNA 1: B1 DNA 1
DNA 2: B1 DNA 2
binding result (SpyCas9;AcrIIA32.1): binds
